T1: hIL2Rg ECD antigen (human, UniProt P31785 23-262)
T1 construct: The immunogen was the ECD fused to human IgG1 hinge and Fc; also called ECD of IL2Rg (human); human IL-2Rγ
T1 sequence: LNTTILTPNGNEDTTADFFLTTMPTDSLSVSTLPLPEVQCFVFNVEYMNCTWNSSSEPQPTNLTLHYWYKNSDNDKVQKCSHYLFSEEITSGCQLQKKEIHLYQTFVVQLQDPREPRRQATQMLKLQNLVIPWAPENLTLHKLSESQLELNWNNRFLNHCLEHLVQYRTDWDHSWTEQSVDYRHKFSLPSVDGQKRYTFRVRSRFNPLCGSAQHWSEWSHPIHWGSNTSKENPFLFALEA

T2: mIL2Rg ECD antigen (murine, UniProt P34902 23-263)
T2 construct: The immunogen was the ECD fused to human IgG1 hinge and Fc; also called ECD of IL2Rg (mouse)
T2 sequence: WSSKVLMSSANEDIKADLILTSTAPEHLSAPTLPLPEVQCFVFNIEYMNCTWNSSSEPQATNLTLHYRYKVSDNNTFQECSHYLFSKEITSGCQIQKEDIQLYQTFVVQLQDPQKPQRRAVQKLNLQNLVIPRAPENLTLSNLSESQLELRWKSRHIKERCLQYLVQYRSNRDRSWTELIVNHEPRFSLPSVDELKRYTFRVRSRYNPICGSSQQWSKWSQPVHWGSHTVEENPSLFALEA

T3: hIL2Rb-his (human, UniProt P14784 27-240)
T3 sequence: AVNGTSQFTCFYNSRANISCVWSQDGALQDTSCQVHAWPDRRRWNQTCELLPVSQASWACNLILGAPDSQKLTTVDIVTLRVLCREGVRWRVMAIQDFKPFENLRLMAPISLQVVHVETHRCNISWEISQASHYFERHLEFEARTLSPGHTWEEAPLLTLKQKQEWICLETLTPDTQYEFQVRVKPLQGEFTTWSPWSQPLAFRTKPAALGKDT

B1: hIL2Rg_VHH-10 (VHH)
VHH: QVQLQESGGGSVQAGGSLRLSCAASGSIYSSAYIGWFRQAPGKKREGVAGIYTRDGSTAYADSVKGRFTISQDSAKKTVYLQMNSLKPEDTAMYYCAAGRRTKSYVYIFRPEEYNYWGQGTQVTVSS
notes: As a his-tagged phage clone periplasmic extract
B2: mIL2Rg_VHH3 (VHH)
VHH: QVQLQESGGGSVQAGASLRLSCSVSGFTFDESVMSWLRQGPGNECDAVAIISSDDNTYYDDSVKGRFTISEDNAKNMVYLQMNSLKPEDTAVYYCAARRRRPVYDSDYELRPRPLCGDFGVWGQGTQVTVSS
notes: as for B1
B3: mIL2Rg_VHH2 (VHH)
VHH: QVQLQESGGGSVQPGGSLRLSCAASGSTYANYLMGWFRQAPGKEREGVAAIYSGGGSTYYADSVKGRFTISQDNAKNTLYLQMNSLKPEDTAMYYCAAASAVKGDKGDIVVVVTGTQRMEYDYWGHGTQVTVSS
notes: as for B1
B4: mIL2Rg_VHH4 (VHH)
VHH: QVQLQESGGGSVQAGGSLRLSCIGSGLPFDEDDMGWYRQAPGNECELVSSISSDGTAYYADSVKGRFTISRDNAKNTVLLQMNSLKPEDTAVYYCAAGVHRQFGGSSSCGDAFYGMDYWGKGTQVTVSS
notes: as for B1
B5: mIL2Rg_VHH7 (VHH)
VHH: QVQLQESGGGLVQPGGSLRLSCTVSGFTFDESDMGWLRQNPGNECGVVSVITSDDNPYYDDSVKGRFTISEDNAKNMVYLQMNSLKPEDTGVYYCATRSRQPVYSRDYELRPRPLCGDFGVWGQGTQVTVSS
notes: as for B1
B6: mIL2Rg_VHH12 (VHH)
VHH: QVQLQESGGGSVLAGGSLRLSCVASGYGYNYIGWFRQTPGKEREGVAVIYIGGGDTYYADSVKGRFTASRDNAKSTLYLQMNSLEPEDTAMYYCVARYCVGSVYACLRGGHDEYAHWGQGTQVTVSS
notes: as for B1
B7: mIL2Rg_VHH13 (VHH)
VHH: B6 VHH with I51T
notes: as for B1
B8: mIL2Rg_VHH9 (VHH)
VHH: QVQLQESGGGSVQAGGSLRLSCAASGFTFDDFDMGWYRQAPGNECELVSTISDDGSTYYADSVKGRSSISRDNAKNTVYLQMNSLKPEDTAVYYCAAEGALGSKTNCGWVGNFGYWGQGTQVTVSS
notes: as for B1
B9: mIL2Rg_VHH8 (VHH)
VHH: B8 VHH with A23T, S84R, A91G
notes: as for B1
B10: mIL2Rg_VHH10 (VHH)
VHH: B8 VHH with S11L, A14P, N76S, S84R, A91G
notes: as for B1
B11: mIL2Rg_VHH15 (VHH)
VHH: B8 VHH with A23T, S84R, A91G, T105M
notes: as for B1
B12: mIL2Rg_VHH11 (VHH)
VHH: B8 VHH with S11L, A14P, R19K, D30S, F32R, L47R
notes: as for B1
B13: mIL2Rg_VHH14 (VHH)
VHH: B8 VHH with D61N, T77M
notes: as for B1
B14: mIL2Rg_VHH5 (VHH)
VHH: QVQLQESGGGSVQAGGSLRLSCVASGDVYGRNSMAWFRQAPGKEREGVAVGYSVVTTTYYADSVKGRFTISEDNDKNTVYLEMNSLKPEDTAMYYCAADGNLWRGLRPSEYTYWGQGTQVTVSS
notes: as for B1
B15: mIL2Rg_VHH6 (VHH)
VHH: QVQLQESGGGSVQAGGSLRLSCATSGFPYSRYCMGWFRQAPGKEREGVAAIEPDGSTSYADSVKGRFTISQDNAVNTLYLQMNNLKPEDTAMYYCAADERCFYLKDYDLRRPAQYRYWGQGTQVTVSS
notes: as for B1
B16: hIL2Rb_VHH2 Mono-Fc VHH (Fc fusion, not shown: a dimerising Fc or GST)
chain: QVQLQESGGGLVQPGGSLRLSCVASGFTFSNYWIFWVRQAAGKGLEWLSTSNTGGDTTKYADSVKGRFTISRDSAKNTEYLQMNSLKPEDTAVYYCETGRCARSGGYQGTQVTVSS
B17: hIL2Rb_VHH3 Mono-Fc VHH (Fc fusion, not shown: a dimerising Fc or GST)
chain: QVQLQESGGGLVQPGGSLKLSCAASGFRFSNYGMSWVRQAPGEGLEWVSYINGDGSRTHYADSVKGRFTISRDNAKNTLYLQLNSLKTEDTAMYYCEKGLSRDGWSLSAASRGQGTQVTVSS
B18: hIL2Rb_VHH4 Mono-Fc VHH (Fc fusion, not shown: a dimerising Fc or GST)
chain: QVQLQESGGGSVQTGGSLRLSCAVSGYTTYSFNYMGWFRQAPGKEREGVAVIYTGGGSTLYADSVKGRFTISQDNAKNTVYLQMNSLKPEDTAMYYCAADDQRFASPLYAYFGYWGQGTQVTVSS
B19: hIL2Rb_VHH8 Mono-Fc VHH (Fc fusion, not shown: a dimerising Fc or GST)
chain: QVQLQESGGGSVQVGGSLKLSCAASGYTYSSYYCMGWFRQAPGKEREGVAAIDSDGSTSYADSVKGRFTISQDDAKNTLYLQMNSLKPEDTAMYYCAASYEVVDCYPSGYGQDYWGKGTQVTVSS
B20: hIL2Rb_VHH6 Mono-Fc VHH (Fc fusion, not shown: a dimerising Fc or GST)
chain: QVQLQESGGGSVQAGGSLRLSCAASEYTASRYCMAWFRQAPGKEREGVAAIHPGGGTTYYADSVKGRFSISQDSADNTLYLQMNSLKPEDTAMYYCAAGSLWVPFGDRCAANYWGQGTQVTVSS
B21: hIL2Rb_VHH7 Mono-Fc VHH (Fc fusion, not shown: a dimerising Fc or GST)
chain: QVQLQESGGGSVQAGGSLRLSCAASGYEYCRIHMTWYRQGPGKEREFVSSIGSDGRKTYANSVTGRFTISRDNANHTVYLQMNSLSPEDTAMYYCKTEYLYGLGCPDGSAYWGQGTQVTVSS
B22: hIL2Rb_VHH1 Mono-Fc VHH (Fc fusion, not shown: a dimerising Fc or GST)
chain: QVQLQESGGGSVQAGGSLRLSCVGSGYTYDTSDMSWYRQAPGKEREFVSDIDSGDWAAYADAVKGRFTISRDNAKKTVYLQMNSLEPEDTAMYYCKASYWKWGKLNNFWGPGTQVTVSS
B23: hIL2Rb_VHH5 Mono-Fc VHH (Fc fusion, not shown: a dimerising Fc or GST)
chain: QVQLQESGGGSVQVGGSLRLSCATSGDTKSIRCMGWFRQTPGKEREGIAAIDREGFATYADSVYDRFTIAQDNAQNTLYLEMNALKPEDTAMYYCAAQNMCRVVRGAMTGVDYWGKGTQVTVSS

Residue numbers refer to the chain shown, from its start. Some results are limits rather than exact numbers.

In general, Kd refers to the free concentration of one partner at which half of the binding sites on the other are occupied at equilibrium, for simple one-to-one binding. One may read the koff as the rate constant with which the complex falls apart. A word on the kon: it is the second-order rate constant of association.

The target in one experiment is T1, hIL2Rg ECD antigen. As to the kind of experiment: PE-ELISA of phage clones. (In general: In an ELISA, binding on a coated surface is turned into a signal by an enzyme label.)
For the molecule B1, the binding result is recorded as “binds”.

The target in another experiment is T2, mIL2Rg ECD antigen. As to the kind of experiment: PE-ELISA of phage clones.
Consider B2, for which the binding result is recorded as “binds”.
Same read-out and setting: to B3 belongs “binds”; to B4, “binds”.
Take B5: the binding result is reported as “binds”.
The same measure, in the same setting: to B6 belongs “binds”; to B7, “binds”; to B8, “binds”.
Consider B9, for which the binding result is “binds”.
As to B10, the binding result is listed as “binds”.
With B11, the binding result is “binds”.
On to B12, for which the binding result is recorded as “binds”.
The same measure, in the same setting: to B13 belongs “binds”; to B14, “binds”; to B15, “binds”.

The target in a further experiment is T3, hIL2Rb-his. As to the kind of experiment: SPR; ratio of experimental to calculated Rmax. As for the experimental part: (§1) A representative example from each hIL2Rb VHH clonotype generated as descried above was selected for evaluation of binding via SPR as follows. Evaluation of binding affinity of the hIL2Rb binding molecules shown in Table 16 was conducted using surface plasmon resonance (SPR) in substantial accordance with the following procedure. All experiments were conducted in 10 mM Hepes, 150 mM NaCl, 0.05% (v/v) Polysorbate 20 (PS20) and 3 mM EDTA (HBS-EP+ buffer) on a Biacore T200 instrument equipped with a Protein A derivatized sensor chip (Cytiva). Mono-Fc VHH ligands were flowed at 5 μl/min for variable time ranging from 18 to 300 seconds, reaching the capture loads listed in the tables below. Following ligand capture, injections of a 2-fold dilution series of the extracellular domain of the IL2Rb-receptor modified to incorporate a C-terminal poly-His sequence, typically comprising at least five concentrations between 1 μM and 1 nM, were performed in either high performance or single cycle kinetics mode. Surface regeneration was achieved by flowing 10 mM glycine-HCl, pH 1.5 (60 seconds, […]). Buffer-subtracted sensograms were processed with Biacore T200 Evaluation Software and globally fit with a 1:1 Langmuir binding model (bulk shift set to zero) to extract kinetics and affinity constants (kₐ, kd, KD). RMAX<100 RU indicates surface density compatible with kinetics analysis. Calculated Rₘₐₓ values were generated using the equation: Rmax=Load (RU)×valency of ligand×(Molecular weight of analyte/Molecular weight of ligand). Surface activity was defined as the ratio of experimental/calculated Rmax.
Turning to B16, the “Surface Activity” value was 26%.
Take B17: the “Surface Activity” value is 52%.
Turning to B18, the “Surface Activity” value is 96%.
As for B19, the Surface Activity is < 5%.
On the same count and under the same terms, under B20 stands 53%; under B21, 43%.
On the same count and under the same terms, under B22 stands 37%; under B23, 42%.

The target in a further experiment is T3, hIL2Rb-his. Briefly: SPR Biacore T200; Mono-Fc VHH captured on Protein A chip, hIL2Rb-his analyte; 1:1 Langmuir fit. As for the experimental part: as §1
A general note: Surface plasmon resonance follows binding to a sensor surface in real time, without labels.
Regarding B16, the affinity, expressed as Kd, was 16 nM; the koff was determined as 0.00224 s⁻¹; the kon worked out at 139000 M⁻¹ s⁻¹.
B17 registered a dissociation constant (Kd) of 47 nM, a koff of 0.00699 s⁻¹ and a kon of 157000 M⁻¹ s⁻¹.
For B18 the same measures were 3.4 nM, 0.00205 s⁻¹ and 600000 M⁻¹ s⁻¹.
For B20 the same measures were 1.2 nM, 0.0229 s⁻¹ and 1.9e+07 M⁻¹ s⁻¹.
For B21 the same measures were 1.1 nM, 0.00317 s⁻¹ and 2.86e+06 M⁻¹ s⁻¹.
In turn, B22 came in with a dissociation constant (Kd) of 1 nM, an off-rate constant (koff) of 0.0199 s⁻¹ and an association rate constant (kon) of 1.98e+07 M⁻¹ s⁻¹.
For B23 the same measures were 0.4 nM, 0.00154 s⁻¹ and 3.82e+06 M⁻¹ s⁻¹.

Source of the values: patent publication US20250019453A1 (SYNTHEKINE, published 2025).
